Test results from US12077576 (TRUSTEES OF TUFTS COLLEGE, dated 2024).

Columns and labels:
[1] = molecular target: T1, Clostridium difficile toxin B (TcdB) (Clostridium difficile, UniProt P18177 2-2366); experiment: cell-based or functional assay
[2] = molecular target: T1, Clostridium difficile toxin B (TcdB); experiment: ELISA, VHH dilution series on plate-coated rTcdB, anti-E-tag-HRP detection
[3] = molecular target: T1, Clostridium difficile toxin B (TcdB); experiment: cell-based or functional assay; remark: listed apart in the source

T1 sequence (P18177 2-2366): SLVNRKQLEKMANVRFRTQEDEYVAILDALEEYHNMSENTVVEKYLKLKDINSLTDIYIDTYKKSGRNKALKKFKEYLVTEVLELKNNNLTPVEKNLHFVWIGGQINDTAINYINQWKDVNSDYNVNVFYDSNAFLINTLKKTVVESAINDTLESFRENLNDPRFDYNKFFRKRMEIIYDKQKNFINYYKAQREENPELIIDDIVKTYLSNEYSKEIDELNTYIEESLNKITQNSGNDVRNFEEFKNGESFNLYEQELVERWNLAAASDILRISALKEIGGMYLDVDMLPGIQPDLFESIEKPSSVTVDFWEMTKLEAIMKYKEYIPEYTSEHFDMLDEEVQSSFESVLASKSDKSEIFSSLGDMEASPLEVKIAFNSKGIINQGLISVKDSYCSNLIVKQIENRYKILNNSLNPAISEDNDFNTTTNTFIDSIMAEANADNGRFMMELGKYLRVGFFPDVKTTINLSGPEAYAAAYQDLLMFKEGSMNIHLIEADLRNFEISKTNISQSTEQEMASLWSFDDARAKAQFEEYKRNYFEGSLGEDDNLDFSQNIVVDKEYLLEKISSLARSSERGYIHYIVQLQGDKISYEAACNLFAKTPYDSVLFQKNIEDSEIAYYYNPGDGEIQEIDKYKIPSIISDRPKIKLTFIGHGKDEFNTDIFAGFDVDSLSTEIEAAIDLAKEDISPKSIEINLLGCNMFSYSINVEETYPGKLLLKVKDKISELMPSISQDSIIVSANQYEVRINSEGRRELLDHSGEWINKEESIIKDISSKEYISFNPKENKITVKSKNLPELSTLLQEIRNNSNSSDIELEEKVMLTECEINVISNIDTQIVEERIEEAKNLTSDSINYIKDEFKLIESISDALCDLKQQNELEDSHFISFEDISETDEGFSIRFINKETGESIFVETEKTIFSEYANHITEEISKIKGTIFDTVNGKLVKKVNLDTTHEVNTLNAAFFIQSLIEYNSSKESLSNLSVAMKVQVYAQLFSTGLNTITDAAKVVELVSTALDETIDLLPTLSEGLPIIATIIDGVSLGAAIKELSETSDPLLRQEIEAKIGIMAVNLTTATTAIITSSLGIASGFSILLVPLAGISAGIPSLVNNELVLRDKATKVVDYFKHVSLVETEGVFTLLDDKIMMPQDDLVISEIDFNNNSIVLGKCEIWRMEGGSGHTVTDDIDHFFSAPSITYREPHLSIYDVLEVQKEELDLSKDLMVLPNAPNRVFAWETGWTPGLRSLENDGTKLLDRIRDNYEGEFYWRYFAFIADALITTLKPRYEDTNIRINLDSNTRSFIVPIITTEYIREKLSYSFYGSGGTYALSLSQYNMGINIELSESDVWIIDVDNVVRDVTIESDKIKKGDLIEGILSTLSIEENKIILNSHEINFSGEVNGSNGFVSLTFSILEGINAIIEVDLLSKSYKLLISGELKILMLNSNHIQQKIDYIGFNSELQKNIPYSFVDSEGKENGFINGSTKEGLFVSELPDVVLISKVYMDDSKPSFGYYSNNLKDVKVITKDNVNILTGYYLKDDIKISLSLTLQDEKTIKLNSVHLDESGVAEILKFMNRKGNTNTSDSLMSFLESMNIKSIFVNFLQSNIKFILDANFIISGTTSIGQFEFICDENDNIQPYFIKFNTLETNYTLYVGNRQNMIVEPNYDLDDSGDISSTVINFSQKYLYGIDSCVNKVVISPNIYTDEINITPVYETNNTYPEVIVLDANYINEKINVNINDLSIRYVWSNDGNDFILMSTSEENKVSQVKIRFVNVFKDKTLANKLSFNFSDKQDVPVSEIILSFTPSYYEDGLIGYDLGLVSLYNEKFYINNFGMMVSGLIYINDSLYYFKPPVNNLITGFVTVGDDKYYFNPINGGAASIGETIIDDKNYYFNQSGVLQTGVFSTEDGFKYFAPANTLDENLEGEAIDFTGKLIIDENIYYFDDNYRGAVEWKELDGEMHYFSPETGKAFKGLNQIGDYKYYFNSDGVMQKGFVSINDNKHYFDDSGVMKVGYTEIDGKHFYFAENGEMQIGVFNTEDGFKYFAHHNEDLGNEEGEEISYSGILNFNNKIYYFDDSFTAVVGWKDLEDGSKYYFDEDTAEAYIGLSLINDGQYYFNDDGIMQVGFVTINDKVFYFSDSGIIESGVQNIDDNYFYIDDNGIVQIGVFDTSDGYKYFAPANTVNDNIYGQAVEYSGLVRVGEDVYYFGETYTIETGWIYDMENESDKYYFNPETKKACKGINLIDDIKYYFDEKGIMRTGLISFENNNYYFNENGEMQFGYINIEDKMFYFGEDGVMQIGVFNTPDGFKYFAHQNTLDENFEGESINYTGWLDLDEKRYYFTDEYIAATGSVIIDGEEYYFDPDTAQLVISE

B1: JZT-G9 (XAG-7) anti-TcdB VHH (VHH)
VHH: QVQLAETGGGLVQAGGSLRLSCVSSERNPGINAMGWYRQAPGSQRELVAVWQTGGSLSYADSVKGRFTISRDNLKNTVYLQMNSLKPEDAAVYYCYLKKWRDQYWGQGTRVTVSS
[1]
  Apparent potency, (IC50); TcdB neutralization, Vero cell rounding assay: 3000 pM
[2]
  EC50: 100 pM

B2: JZS-H4 (XAF-13) anti-TcdB VHH (VHH)
VHH: QLQLVESGGGLVQPGGSLRLSCVASGFNFSVQIMSWVRQAPGKGLEWVSAISTGGASKSYADFAKGRFTISRDNAKNTLYLQMNSLQLEDTAVYFCSKGPRTWINSSPRGQGTQVTVSS
[1]
  Apparent potency, (IC50); TcdB neutralization, Vero cell rounding assay: 500 pM
[2]
  EC50: 200 pM

B3: JZS-C2 (XAF-6) anti-TcdB VHH (VHH)
VHH: QVQLAESGGGLVQPGGSLRLSCAASGFTSNSYYIGWFRQAPGKGREAVSSISSSGGSPNYANAVKGRFTITRDNANNTVYLQMDNLKPEDTAVYYCAASKFPLTTMASNRYHYWGQGTQVTVSS
[1]
  Apparent potency, (IC50); TcdB neutralization, Vero cell rounding assay: 500 pM
[2]
  EC50: 3000 pM

B4: JZS-B2 (XAF-4) anti-TcdB VHH (VHH)
VHH: QVQLAESGGGLVQAGGSLRLSCVGSGTSFPRNYMGWYRQAPGKQRELVAAISHDGNVEYADSVKGRFTISRGNFVNTVALQMNSLKSEDTAVYYCKLVTLRRDEYWGQGTQVTVSS
[1]
  Apparent potency, (IC50); TcdB neutralization, Vero cell rounding assay: > 125000 pM
[2]
  EC50: 300 pM

B5: JZS-B9 (XAF-5) anti-TcdB VHH (VHH)
VHH: QLQLVESGGGLVQPGGSLRLSCTSARFSLINYAIGWFRQAPGQKREGVSLLTSGGATYYADSARDRFTISRDNARNTVYLQMNSLKPEDTAVYSCAAGPYSRTLVSRWKVGDGMEYWGKGTLVTVSS
[1]
  Apparent potency, (IC50); TcdB neutralization, Vero cell rounding assay: 1000 pM
[2]
  EC50: 200 pM

B6: JZS-E4 (XAF-10) anti-TcdB VHH (VHH)
VHH: QVQLVESGGGLAQAGGSLRLSCAASGSSFSMNVMGWYRQPPGKQRELVATIRSDGITNYAESVKGRFTISRDNVKNTVHLEMNRLKAEDTAVYYCFHGRARTGNNADLGSWGQGTQVTVSS
notes: also called JZX-E4
[3]
  IC50 TcdB-neutralization potency (FIG. 1), Vero cell rounding assay: ~500 pM
[1]
  Apparent potency, (IC50); TcdB neutralization, Vero cell rounding assay: 1000 pM
[2]
  EC50: 2000 pM

B7: JZS-E6 (XAF-11) anti-TcdB VHH (VHH)
VHH: QVQLAETGGGLVQAGGSLRLSCAASGRLSERIFMISTMAWYRQVPGKQRELVAEISRLGRANYSDSVTDRFIISRDNTKNTVDLQMNSLKPEDTAVYYCNLKPFVDNYRGPGTQVTVSS
[1]
  Apparent potency, (IC50); TcdB neutralization, Vero cell rounding assay: 1000 pM
[2]
  EC50: 800 pM

B8: JZS-F6 (XAF-12) anti-TcdB VHH (VHH)
VHH: QLQLAESGGGLVQPGGSLRLSCAASGITFSNVAMSWVRQAPGKGLEWVSTISTGGSSTSYLDSVKSRFTISRDNAKKTVYLQMNSLKPEDTAVYYCVKGPKYSATIRRPEGQGTQVTVSS
[1]
  Apparent potency, (IC50); TcdB neutralization, Vero cell rounding assay: 500 pM
[2]
  EC50: 100 pM

B9: JZS-H9 (XAF-14) anti-TcdB VHH (VHH)
VHH: QVQLVESGGGLVQPGGSLTINCTVSGTAFSLDTMTWYRQAPGKQRELAADISSSGASNYLASVKGRFTISRDNAKSALYLQMNSLKPEDTGTYYCYRGRVRGVWPLDSGMMYWGKGTLVTVSS
notes: also called JZX-H9
[1]
  Apparent potency, (IC50); TcdB neutralization, Vero cell rounding assay: 15000 pM
[2]
  EC50: 1000 pM

B10: JZS-A2a (XAF-1) anti-TcdB VHH (VHH)
VHH: QVQLAESGGGLVQAGGSLRLSCAASGSVYTFMGWYRQAPGKTRELVAGISGGTITKYADSVKGRFIISRDSPKNTIYLQMNELKVEDTGVYYCNAGDTIAQAMGTRRFPFDRWGQGTQVTVAS
[1]
  Apparent potency, (IC50); TcdB neutralization, Vero cell rounding assay: > 25000 pM
[2]
  EC50: > 25000 pM

B11: JZS-C10 (XAF-9) anti-TcdB VHH (VHH)
VHH: QLQLVETGGLVQAGGSLRLSCVGSGRGPGINVMGWYRQAPGTERELVATWQTGGTTNYADSVKGRFTISRDNLKNTVSLQMDSLKPEDTAVYYCYLKKWRDEYWGQGTQVTVSS
[1]
  Apparent potency, (IC50); TcdB neutralization, Vero cell rounding assay: 500 pM
[2]
  EC50: 100 pM

B12: JZT-F7 (XAG-1) anti-TcdB VHH (VHH)
VHH: QVQLVETGGGLVQAGGSLRLSCAASGSILSSMGWYRQAPGNQREFVASISRTGATDYADSVAGRFIISRDRGKNTVLALQMDSLKPEDTAVYYCNAGLGMGDPRRPGPWWGQGTQVTVSS
[1]
  Apparent potency, (IC50); TcdB neutralization, Vero cell rounding assay: 1000 pM
[2]
  EC50: 3000 pM
